Assay results: patent publication US20260176336A1 (MESTAG THERAPEUTICS, published 2026)
Like-named read-outs stand apart in the source and are kept apart here.

Tests used:
[1] = molecular target: T1, human LTBR endogenously expressed on cells (HepG2, A549, A375, HCC1187, RPMI-7951, primary human breast CAFs) (human, UniProt P36941 31-435); assay: cell-based or functional assay
[2] = molecular target: T1, human LTBR endogenously expressed on …; assay: flow cytometry, A549 cells
Experimental: In short, 1×10⁶ cells were resuspended in the FACS buffer (1% BSA, 0.1% Sodium Azide in PBS), and 50 μl was added to each well (5×10⁴ cells/well) of a 96-U bottom plate. The cells were washed once and resuspended in 50 μl/well of FACS buffer containing a 1:3, 11-point series dilutions of constructs 4.1-4.6 and clones 4.8-4.9 followed by 1 h incubation at 4° C. […] Next, cells were washed and resuspended in FACS buffer and read on Beckman Coulter CytoFLEX. The data were analysed using FloJo V10 and GraphPad Prism v9. Clone 4.7 was tested for binding to A375 (LTBR positive cell line) and the HEK293-FAP overexpressing cell line, as described in examples 2.4 and 3.5. The EC50 values can be found in.

[3] = molecular target: T1, human LTBR endogenously expressed on …; assay: cell-based or functional assay; remark: listed apart in the source
[4] = molecular target: T1, human LTBR endogenously expressed on …; assay: flow cytometry, A549 cells; remark: listed apart in the source
Experimental: (§1) The ability of VHH-Fc fusion proteins to bind to endogenously expressed LTBR on the A549 tumor cell and to inhibit human LIGHT (Acro, cat. no LIT-H5242) binding to A549 cells was assessed. BHA10 was employed in the assay as a positive control. Recombinant human LIGHT was labelled with PE fluorochrome, using PE/R-Phycoerythrin Conjugation Kit—Lightning-Link® (Abcam, cat no ab102918), following the manufacturer's instructions. 1×10⁶ cells were resuspended in the FACS buffer (1% BSA, 0.1% Sodium Azide in PBS), and 50 ul was added to each well ([…]) of a 96-U bottom plate. The cells were washed and resuspended in 25 ul of antibody dilution (2× final concentration) followed by 0.5 h incubation at 4° C., 25 ul of PE labelled LIGHT at 48 nM (2× final concentration) in FACS buffer was subsequently added to the cells and additionally incubated for 1 h at 4° C. […] Next, cells were extensively washed and fixed with Paraformaldehyde Solution, 4% in PBS (Thermo Scientific, cat no J19943.K2) for 20 mins, following the manufacturer's instructions. The cells were then washed, resuspended in PBS, and read on Beckman Coulter CytoFLEX. The data were analysed using FloJo V10 and GraphPad Prism v9. The IC50 and EC50 values can be found in.

[5] = molecular target: T1, human LTBR endogenously expressed on …; assay: flow cytometry, inhibition of PE-LIGHT (24 nM final) binding to A549 cells; competitor LIGHT; partial inhibition
Experimental: as §1

[6] = molecular target: T1, human LTBR endogenously expressed on …; assay: cell-based or functional assay; remark: listed apart in the source

B1: BHA10 (antibody, V domains shown)
VH: QVQLVQSGAEVKKPGSSVKVSCKASGYTFTTYYLHWVRQAPGQGLEWMGWIYPGNVHAQYNEKFKGRVTITADKSTSTAYMELSSLRSEDTAVYYCARSWEGFPYWGQGTTVTVSS
VL: DIQMTQSPSSLSASVGDRVTITCKASQNVGINVAWYQQKPGKAPKSLISSASYRYSGVPSRFSGSGSGTDFTLTISSLQPEDFATYFCQQYDTYPFTFGQGTKVEIK
notes: as disclosed in WO2004002431; also called BHA10 (anti-LTBR); monospecific anti-LTBR agonist
Q: For B1, which “HCC1187 chemokine induction assay (CCL19) EC50” value [1] is on record?
A: 0.53 nM

Q: And the EC50 [2]?
A: 0.055 nM

Q: And the “HepG2 Reporter assay (NFKB activation-induced luciferase activity) EC50” value [3]?
A: 0.012 nM

Q: What about the EC50 [4] of the same binder?
A: 0.78 nM

Q: And the IC50 [5]?
A: 0.67 nM

Q: And the “HepG2 reporter assay EC50 (w/o cross-linking antibody)” value [6]?
A: 0.052 nM

Q: And the “HepG2 reporter assay EC50 (with cross-linking antibody)” value [6]?
A: 0.029 nM
